Here are results for 2 proteins from article doi:10.1101/2020.08.19.257774 (bioRxiv, 2020).

The data set “cryo-EM structure” concerns the molecule itself. In words: cryo-EM structure.
The data set “negative stain EM” deals with the molecule itself. As to the kind of experiment: negative stain EM.

B1: A. thaliana Light-dependent Protochlorophyllide OxidoReductase isoform B (AtPORB) (enzyme)
chain: QTAATSSPTVTKSVDGKKTLRKGNVVVTGASSGLGLATAKALAETGKWNVIMACRDFLKAERAAKSVGMPKDSYTVMHLDLASLDSVRQFVDNFRRTETPLDVLVCNAAVYFPTAKEPTYSAEGFELSVATNHLGHFLLARLLLDDLKKSDYPSKRLIIVGSITGNTNTLAGNVPPKANLGDLRGLAGGLNGLNSSAMIDGGDFDGAKAYKDSKVCNMLTMQEFHRRFHEETGVTFASLYPGCIASTGLFREHIPLFRALFPPFQKYITKGYVSETESGKRLAQVVSDPSLTKSGVYWSWNNASASFENQLSEEASDVEKARKVWEISEKLVGLA
For B1, the binding result in the data set “cryo-EM structure” is on record as “binds”.

B2: Synechocystis LPOR (enzyme, UniProt Q59987 1-322, looked up)
chain: MEQPMKPTVIITGASSGVGLYGAKALIDKGWHVIMACRNLDKTQKVADELGFPKDSYTIIKLDLGYLDSVRRFVAQFRELGRPLKALVCNAAVYFPLLDEPLWSADDYELSVATNHLGHFLLCNLLLEDLKACPDADKRLIILGTVTANSKELGGKIPIPAPPDLGNFEGFEAGFKKPIAMINNKKFKSGKAYKDSKLCNMLTTRELHRRFHQETGIVFNSLYPGCVADTPLFRNHYSLFRTIFPWFQKNVTKGYVSQELAGERVAMVVADDKFKDSGVHWSWGNRQQAGREAFVQELSEQGSDAQKAQRMWDLSEKLVGLV
On to B2, for which the binding result in the data set “negative stain EM” is reported as “binds”.
